Measurements as given in the RNAGym collection of RNA variant scans (doi:10.1073/pnas.2313332121).

B1: TPR t1 (parent)
chain: GACCAAUCUGCCCUCAGAGCUCGAGAACAUCUUCGGAUGCAGAGGAGGCAGGCUUCGGUGGCGCGAUAGCGCCAACGUCCUCAACCUCCAAUGCAUCCCACCACAUGAUGAUGCCUGAAGAGCCUUGGUUUUUUG

Variants of: B1
Test: polymerase ribozyme fitness, log enrichment relative to wild type (log ratio); higher = more active; in vitro selection for triplet polymerase activity
How it was run: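 Fitness compares each genotype's enrichment to that of the wild type on a logarithmic scale, averaging replicates with inverse-variance weights. The logarithm is base 2. Enrichment came from Illumina sequencing of input and output libraries after one triplicate round of in vitro selection, which included frozen incubation at −7 °C, of PCR-built, transcribed mutant libraries of each subunit of a heterodimeric triplet polymerase ribozyme. Only genotypes with ≥10 input reads and ≥1 read per output were kept.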

Variant	polymerase ribozyme fitness (log ratio)
GACCAAUCUGCCCUCAGCGCUCGAGAACAUCUUCGGAUGCAGAGGAGGCAGGCUUCGGUGGCGCGAUAGCGCCAACGUCCUCAACCUCCAAUGCAUCCCACCACAUGAUGAUGCCUGAAGAGCCUUGCUUUUUUG	-5.12
GACCAAUCUGCCCUCAGAGCUCGAGAACAUCUUCGGAUGCAGAGGAGGCAGGCUUCGGUGGCGCGAUAGCGACAACGUCCUGAACCUCCAAUGCAUCCCACCACAUGAUGAUGCCUGAAGAGCCUUGGUUUUUUG	-0.603
GACCAAGCUGCCCUCAGAGCUCGAGAACAUCUUCGGAUGCAGAGGAGGCAGGCUUCGGUGGCGCGAUAGCGCCAACGUCCUCAACCUCCAAUGCAUCCCACCACAUGAUGAUGCCUCAAGAUCCUUGGUUUUUUG	-4.49
GACCAAUCUGCCCUCAGAGCUCGAGGACAUCUUCGGAUGCAGAGGAGGCAGGCUUCGGUGGCACGAUAGCGCCAACGUCCUCAACCUCCAAUGCAUCCCACCACAUGAUGAUGCCUGAAGAGCGUUGGUUUUUUG	-0.0451
GACCAAUCUGCCCUCAGAGCUCGAGAACAUCUUCGGAUGCAGAGGAGGCAGGCUUCGGUGGCGCGAUAGCGCCAACGUCCUCAACCUCCAAUGCAUCCCACCACAUGAUGAUUCCUGAAAAGCCUUGGUUUAUUG	-3.83
GACCAAUUUGCCCUCAGAGCUCGAGAUCAUCUUCGGAUGCAGAGGAGGCAGGCUUCGGUGGCGCGAUAGCGCCAACGUCCUCAACCUCCAAUGCAUCCCACCACAUGAUGAUGCCUGAAGAGCCUUGGUUUUUUG	-1.79
GACCAAUCUGCCCUUAGAGCUCGAGAACAUCUUCGGAUGCAGAGGAGGCAGGCUUCGGUGGCGCGAUAGCGCCAACGUCCUCAACCUGCAAUGCAUCCCACCCCAUGAUGAUGCGUGAAGAGCCUUGGUUUUUUG	-6.98
GACCAAUCUGCCCUCAGAGCUCGAGAACAUCUUCGGAUGCAGAGGAGGCAGGCUUCGGUGACGCAAUAGCGCCAACGUCCUCAACCUCCAAUGCAUCCCACCACAUGAUGAUGCCUGAAGAGCCUUGGUUUUUUG	-3.94
GACCAAUCUGCCCUCAGAGCUCGAGAACAUCUUCGGAUGCAGAGGAGGUAGGCUUCGGUGGCACGACAGCGCCAACGUCCUCAAUCUCCAAUUCAUCCCACCACAUGAUCAUGCCUGAAGAGCAUUGGUUUUUUG	-8.14
GACCAAUCUGCCAUCUGAGCUCGAGAACAUCUUCGGAUGCAGAGGAGGCAGGCUUCGGUGGCGCGAUAGCCCCAACGUCCUCAACCUCCAAUGCAUCCCACCACAUGAUGAUGCCUGAACAGCCUUGGUUUUUUG	-0.814
GACCAAUCUGCCCUCAGAGCUCGAGAACAUCUUCGGAUGCAGAGGAGGCAGGCUUCGGUCGCGCGAUAGCGCCAACGUCCUCAACCUCCAAUACAUCCCACCACAUGAUGAUGCCUGAAGAGCCUUGGUUUUUUG	-0.963
GACCAAUCUGCCCUCAGAGCUCGAGAACAUCUUCGGAUGCAGAGGAGGCUGGCUUCGGUGGCGCGAUAGCGCCAACGUCCUCAACAUCCAAUGCAUCCCACCACAUGAUGAUGCCUGUAGAGCCUUGGUUUUUUG	-1.06
GACCAAUCUGCCCUUAGAGCUCGAGAACAUCUUCGGAUGCAGAGGAGGCAGGCUUCGGUGGCGCGAUAGCGCCAACGUCCUCAACCUCCAAUGCAUCCCACCACAUGAUGAUGCCUGAAGAGCCUUAGAUUUUUG	-4.11
GACCAAUCUGCCUUCAGAGCUCGAGAACAUCUUCGGAUGCAGAGGAGGCAGCCUUCGGUGGUGCGAUAGCGCCAACGUCCUCAACCUCCAAUGGAUCCCUCCACAUGAUGAUACCUGAAGAGCCUUGGUUUUUUG	-3
GACCAAUCUGCCCUCAGAGCUAGAGAACAUCUUCGGAUGCAGAGGAGGCAGGCUUCGGUGGCGCGAUAGCGCCAACGUCCUCAAUCUCCAAUGCAUCCCACCACAUGAUGAUGCCUGAAGAGCCUUGGUUUUUUG	-4.92
GACCAAUCUGCCCUCAGAGCUCGAGAACAUCUUCGGAUGCAGAGGAGGCAGGCUUCGGUGGCGCUCUAGCGCCAACGUCCUCAACCUCCAAUGCAUCCCACCACAUGAUGAUGCCUGAAGAGCCUUGGUUUUUUG	-4.3
GACCAAUCUGUCCUCAGAGCUCGAGAACAUCUUCGGAUGCAGAGGAGGCAGACUUCGGUGGCGCGAUAGCGCCAACGUCUUCAACCUCCAAUGCAUCCCACCACAUGAUGAUGCCUGAAGAGCCUUGGUUUUUUG	-2.45
GACCAAUCUACCCUCCGAGCUCGAGAACAUCUUCGGAUGCAGAGGAGGCGGGCUUCGGUGGCGCGAUAGCGCCAACGUCCUCAACCUCCAAUGCCUCCCACCACAUGAUGAUGCCUGAAGAGCCUUGGUUUUUUG	-3.07
GACCAAUCUGCCCUCAGAGCUCGAGAACAUCUUCGGAUGCAGAGGAGGCAGGCUUCGGUGGCGCGAUAGCGCCAACGUCCUCAACCUCCAAUGAAACCCACCACAUGAUGAUGCCUGAAGAGCCUUGGUUUUUUG	-6.34
GACCAAUCUGUCCUCAGAGCUCGAGUACAUCUUCGGAUGCAGAGGCGGGAGGCUUCGGUGGCGCGAUAGCGUCAACGUCCUCAACGUCCAAUGCAUCCCACCACAUGAUGAUGCCUGAAGAGCCUUGGUUUUUUG	-6.59
GACCAAUCUGCCCUCAGAGCUCGAGAACAUCUUAGGUUGCAGAGGAGGCAGGCUUCGGUGGCGCGAUACCGCCAACGUCCUCAACCUCCAAUGCAUCCCACCACAUGAUGAUGCCUGAAAAGCCUUGGUUUUUUG	-5.05
